Measurements reported in article PMC8044208 (2021).

B1: human MLKL pseudokinase domain, as used for the KD measurements (domain or fragment)
chain: QEQIKEIKKEQLSGSPWILLRENEVSTLYKGEYHRAPVAIKVFKKLQAGSIAIVRQTFNKEIKTMKKFESPNILRIFGICIDETVTPPQFSIVMEYCELGTLRELLDREKDLTLGKRMVLVLGAARGLYRLHHSEAPELHGKIRSSNFLVTQGYQVKLAGFELRKTQTSMSLGTTREKTDRVKSTAYLSPQELEDVFYQYDVKSEIYSFGIVLWEIATGDIPFQGCNSEKIRKLVAVKRQQEPLGEDCPSELREIIDECRAHDPSVRPSVDEILKKLSTFSK

Tests used:
Mb(MLKL_26) = assay: FACS; yeast display
[1] = molecular target: B1; assay: previously reported

| Kd (Mb(MLKL_26)) | Kd [1] | Binder |
| --- | --- | --- |
| 176 nM | – | B1 |
| – | 37.1 nM | Mb(MLKL_32) (protein) VSSVPTKLEVVAATPTSLLISWDAPAVTVDLYIITYGETGGNSPVQTFEVPGSKSTATISGLSPGVDYTITVYAYSFMYHDYYYPEWSPISINYRT |
